We go through nine molecules from patent publication US20250076311A1 (Chugai, published 2025).

The target in assay [1] is T1, human FcγRIIaH extracellular domain, His-tagged (human, UniProt P12318 34-217).
T1 construct: also called human FcgRIIaH; FcγRIIa type H
T1 sequence: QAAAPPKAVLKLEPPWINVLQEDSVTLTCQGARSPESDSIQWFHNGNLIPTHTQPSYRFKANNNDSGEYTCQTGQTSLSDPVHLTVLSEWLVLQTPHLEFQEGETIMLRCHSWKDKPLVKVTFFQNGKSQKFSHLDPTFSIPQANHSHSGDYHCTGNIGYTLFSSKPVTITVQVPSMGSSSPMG
Nature of the assay: SPR (Biacore), 25C, FcgR bound per antibody captured.

For assay [2], the target named is T2, human FcγRIIaR extracellular domain, His-tagged (human, UniProt P12318 34-217).
T2 construct: also called human FcgRIIaR; FcγRIIa type R
T2 chain: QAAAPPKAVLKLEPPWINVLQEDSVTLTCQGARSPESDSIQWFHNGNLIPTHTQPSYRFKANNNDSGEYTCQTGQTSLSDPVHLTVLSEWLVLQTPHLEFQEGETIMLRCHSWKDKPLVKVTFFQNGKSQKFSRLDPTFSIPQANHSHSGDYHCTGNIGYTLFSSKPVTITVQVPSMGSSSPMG
The assay is described as above.

In assay [3] the target is T3, human FcγRIIIaV extracellular domain, His-tagged (human, UniProt P08637 17-208).
T3 construct: also called human FcgRIIIaV
The description is as above.

The target of assay [4] is T4, cynomolgus monkey FcγRIIIaS extracellular domain with C-terminal His-tag (cynomolgus monkey, UniProt A3RFZ7 21-206 (rhesus entry)).
T4 construct: also called cyno FcgRIIIaS; cynoFcγRIIIaS; not shown: His-tag added to the C-terminus
Nature of the assay: SPR (BIACORE), antibody captured, FcgR analyte. How it is done:
(§1) The kinetic analysis of interactions between these antibodies and FcγR was carried out using BIACORE® T200 or BIACORE® 4000 (GE Healthcare). HBS-EP+ (GE Healthcare) was used as the running buffer, and the measurement temperature was set to 25° C. […] After the measurement, the antibody captured on the chip was washed off by allowing reaction with 10 mM glycine-HCl, pH1.5 and 25 mM NaOH so that the chip was regenerated and used repeatedly. The sensorgrams obtained as measurement results were analyzed by the 1:1 Langmuir binding model using the BIACORE® Evaluation Software to calculate the binding rate constant ka (L/mol/s) and dissociation rate constant kd (1/s), and the dissociation constant KD (mol/L) was calculated from these values. […] Regarding such interactions, KD values were calculated using the following 1:1 binding model described in BIACORE® T100 Software Handbook BR1006-48 Edition AE.

Assay [5] concerns the target T5, cynomolgus monkey FcγRIIIaS extracellular domain with C-terminal His-tag (cynomolgus monkey, UniProt Q8SPW2 21-206 at identity 1.00)).
T5 construct: also called cyno FcγRIIIaS; FcgRIIIaS
T5 chain: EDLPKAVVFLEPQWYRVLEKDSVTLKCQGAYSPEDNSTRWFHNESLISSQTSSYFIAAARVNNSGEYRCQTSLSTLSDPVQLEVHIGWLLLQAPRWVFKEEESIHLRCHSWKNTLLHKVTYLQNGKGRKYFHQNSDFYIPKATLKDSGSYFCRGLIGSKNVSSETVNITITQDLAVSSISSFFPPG
Nature of the assay: SPR; KD of SG1 / KD of variant. Here is the method:
as §1

T3 sequence (P08637 17-208 F176V): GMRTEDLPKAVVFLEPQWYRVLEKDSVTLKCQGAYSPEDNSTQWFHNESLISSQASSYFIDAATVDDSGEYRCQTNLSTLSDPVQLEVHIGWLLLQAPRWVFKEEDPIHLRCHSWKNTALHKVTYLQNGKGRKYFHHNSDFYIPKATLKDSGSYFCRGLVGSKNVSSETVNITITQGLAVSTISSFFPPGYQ

B1: GpH7-B3 A327N / GpL16-k0 (antibody, human IgG1, kappa)
heavy: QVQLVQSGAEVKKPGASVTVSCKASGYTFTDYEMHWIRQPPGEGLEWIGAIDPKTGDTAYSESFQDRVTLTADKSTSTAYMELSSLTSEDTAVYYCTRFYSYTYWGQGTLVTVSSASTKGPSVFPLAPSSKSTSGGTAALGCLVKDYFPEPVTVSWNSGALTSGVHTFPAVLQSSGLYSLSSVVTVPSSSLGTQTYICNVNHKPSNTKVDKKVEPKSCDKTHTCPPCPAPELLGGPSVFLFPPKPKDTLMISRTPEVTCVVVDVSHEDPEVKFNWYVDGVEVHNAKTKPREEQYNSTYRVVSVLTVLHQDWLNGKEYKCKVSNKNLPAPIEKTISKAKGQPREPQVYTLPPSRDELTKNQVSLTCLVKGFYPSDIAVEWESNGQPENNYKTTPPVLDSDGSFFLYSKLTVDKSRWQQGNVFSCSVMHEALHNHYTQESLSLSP
light: DIVMTQSPLSLPVTPGEPASISCQASESLVHSNRNTYLHWYLQKPGQSPQLLIYKVSNRFSGVPDRFSGSGSGTDFTLKISRVEAEDVGVYYCSQNTHVPPTFGQGTKVEIERTVAAPSVFIFPPSDEQLKSGTASVVCLLNNFYPREAKVQWKVDNALQSGNSQESVTEQDSKDSTYSLSSTLTLSKADYEKHKVYACEVTHQGLSSPVTKSFNRGEC
notes: also called B3 variant A327N
Regarding B1, the “Binding to human FcgRs (parent B3 = 100)” value in assay [1] was found to be 95; in assay [2], 48; in assay [3] it was 32.

B2: GpH7-B3 A330K / GpL16-k0 (antibody, human IgG1, kappa)
heavy: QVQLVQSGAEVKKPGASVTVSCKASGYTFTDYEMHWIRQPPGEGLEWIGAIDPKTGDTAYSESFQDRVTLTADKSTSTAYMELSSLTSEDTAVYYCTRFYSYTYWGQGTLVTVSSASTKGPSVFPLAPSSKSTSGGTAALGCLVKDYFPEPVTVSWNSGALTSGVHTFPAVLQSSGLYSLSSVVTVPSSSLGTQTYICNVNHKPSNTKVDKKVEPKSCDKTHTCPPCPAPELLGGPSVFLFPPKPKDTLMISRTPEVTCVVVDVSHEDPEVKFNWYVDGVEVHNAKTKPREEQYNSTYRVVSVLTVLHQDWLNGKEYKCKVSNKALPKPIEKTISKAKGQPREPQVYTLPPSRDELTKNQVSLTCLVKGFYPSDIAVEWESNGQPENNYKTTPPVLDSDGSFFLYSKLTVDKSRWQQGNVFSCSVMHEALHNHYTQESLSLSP
light: DIVMTQSPLSLPVTPGEPASISCQASESLVHSNRNTYLHWYLQKPGQSPQLLIYKVSNRFSGVPDRFSGSGSGTDFTLKISRVEAEDVGVYYCSQNTHVPPTFGQGTKVEIERTVAAPSVFIFPPSDEQLKSGTASVVCLLNNFYPREAKVQWKVDNALQSGNSQESVTEQDSKDSTYSLSSTLTLSKADYEKHKVYACEVTHQGLSSPVTKSFNRGEC
notes: also called B3 variant A330K
On to B2, for which the “Binding to human FcgRs (parent B3 = 100)” value in assay [1] came out at 121; in assay [2], 127; in assay [3] it was 86.

B3: GpH7-B3 P271E / GpL16-k0 (antibody, human IgG1, kappa)
heavy: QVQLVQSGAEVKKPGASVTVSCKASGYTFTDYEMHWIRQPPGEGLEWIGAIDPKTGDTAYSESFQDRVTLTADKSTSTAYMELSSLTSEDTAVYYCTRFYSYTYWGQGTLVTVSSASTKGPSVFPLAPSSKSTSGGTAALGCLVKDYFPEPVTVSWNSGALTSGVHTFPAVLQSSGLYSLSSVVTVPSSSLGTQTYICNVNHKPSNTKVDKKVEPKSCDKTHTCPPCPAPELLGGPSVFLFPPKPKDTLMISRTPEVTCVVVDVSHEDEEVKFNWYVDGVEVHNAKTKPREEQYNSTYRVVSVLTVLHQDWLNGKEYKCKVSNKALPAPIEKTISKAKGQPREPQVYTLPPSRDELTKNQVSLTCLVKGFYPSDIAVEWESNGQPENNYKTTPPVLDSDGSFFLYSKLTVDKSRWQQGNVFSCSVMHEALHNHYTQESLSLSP
light: DIVMTQSPLSLPVTPGEPASISCQASESLVHSNRNTYLHWYLQKPGQSPQLLIYKVSNRFSGVPDRFSGSGSGTDFTLKISRVEAEDVGVYYCSQNTHVPPTFGQGTKVEIERTVAAPSVFIFPPSDEQLKSGTASVVCLLNNFYPREAKVQWKVDNALQSGNSQESVTEQDSKDSTYSLSSTLTLSKADYEKHKVYACEVTHQGLSSPVTKSFNRGEC
notes: also called B3 variant P271E
Regarding B3, the “Binding to human FcgRs (parent B3 = 100)” value in assay [1] amounted to 90; in assay [2] it was 51; in assay [3], 87.

B4: GpH7-B3 A330R / GpL16-k0 (antibody, human IgG1, kappa)
heavy: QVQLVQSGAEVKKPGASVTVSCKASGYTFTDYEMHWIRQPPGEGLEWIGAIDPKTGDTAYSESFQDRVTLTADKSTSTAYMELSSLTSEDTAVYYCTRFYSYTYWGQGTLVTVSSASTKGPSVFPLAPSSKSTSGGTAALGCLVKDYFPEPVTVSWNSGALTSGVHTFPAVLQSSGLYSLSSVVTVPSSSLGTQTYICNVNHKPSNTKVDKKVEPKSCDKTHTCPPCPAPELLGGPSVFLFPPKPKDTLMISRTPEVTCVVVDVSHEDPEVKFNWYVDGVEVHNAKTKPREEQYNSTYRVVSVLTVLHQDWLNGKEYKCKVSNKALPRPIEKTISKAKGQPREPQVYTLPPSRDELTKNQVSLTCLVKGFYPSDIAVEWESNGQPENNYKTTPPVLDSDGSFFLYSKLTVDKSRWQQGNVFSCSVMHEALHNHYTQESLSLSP
light: DIVMTQSPLSLPVTPGEPASISCQASESLVHSNRNTYLHWYLQKPGQSPQLLIYKVSNRFSGVPDRFSGSGSGTDFTLKISRVEAEDVGVYYCSQNTHVPPTFGQGTKVEIERTVAAPSVFIFPPSDEQLKSGTASVVCLLNNFYPREAKVQWKVDNALQSGNSQESVTEQDSKDSTYSLSSTLTLSKADYEKHKVYACEVTHQGLSSPVTKSFNRGEC
notes: also called B3 variant A330R
With B4, the “Binding to human FcgRs (parent B3 = 100)” value in assay [1] turned out to be 116; in assay [2], 123; in assay [3], 73.

B5: M103205H795-MY350/M103202L889-SK1 (antibody, human IgG1, kappa, name in EU numbering)
heavy: QVTLKESGPVLVKPTETLTLTCTVSGIDLSHDDISWVRQAPGKGLEWVGIISYAGSTYYASWAKGRLTISKDTSKNQVVLTMTNMDPVDTATYYCARGVPAYSHGGDLWGQGTLVTVSSASTKGPSVFPLAPSSKSTSGGTAALGCLVKDYFPEPVTVSWNSGALTSGVHTFPAVLQSSGLYSLSSVVTVPSSSLGTQTYICNVNHKPSNTKVDKKVEPKSCDKTHTCPPCPAPELWNGPSVFLFPPKPKDTLMISRTPEVTCVVVDVSEEDPEVKFNWYVDGVEVHNAKTKPREEQYNSTYRVVSVLTVLHQDWLNGKEYKCKVSNKALPKPIEKTISKAKGQPREPQVYTLPPSREEMTKNQVSLTCLVKGFYPSDIAVEWESNGQPENNYKTTPMVLDSDGSFFLYSKLTVDKSRWQQGNVFSCSVMHEALHNHYTQKSLSLSP
light: DIVMTQSPATLSLSPGERATLSCTSSQSVYHANWLSWFQQKPGQPPKLLIYWASTLAYGVPSRFSGSGSGTDFTLTISSLQPEDAATYYCAGGYGGGRYAFGQGTKVEIKRTVAAPSVFIFPPSDEQLKSGTASVVCLLNNFYPREAKVQWKVDNALQSGNSQESVTEQDSKDSTYSLSSTLTLSKADYEKHKVYACEVTHQGLSSPVTKSFNRGEC
notes: Fc variant of MS1032LO06-SG1; positions in EU numbering
In assay [4], B5 displayed a Kd of 6.6 µM.

B6: M103205H795-MY518/M103202L889-SK1 (antibody)
heavy: QVTLKESGPVLVKPTETLTLTCTVSGIDLSHDDISWVRQAPGKGLEWVGIISYAGSTYYASWAKGRLTISKDTSKNQVVLTMTNMDPVDTATYYCARGVPAYSHGGDLWGQGTLVTVSSASTKGPSVFPLAPSSKSTSGGTAALGCLVKDYFPEPVTVSWNSGALTSGVHTFPAVLQSSGLYSLSSVVTVPSSSLGTQTYICNVNHKPSNTKVDKKVEPKSCDKTHTCPPCPAPELWNGPSVFLFPPKPKDTLMISRTPEVTCVVVDVSDEDPEVKFNWYVDGVEVHNAKTKPREELYNSTYRVVSVLTVLHQDWLNGKEYKCKVSNTALPKPIEKTISKAKGQPREPQVYTLPPSREEMTKNQVSLTCLVKGFYPSDIAVEWESNGQPENNYKTTPPVLDSDGSFFLYSKLTVDKSRWQQGNVFSCSVMHEALHNHYTQKSLSLSP
light: DIVMTQSPATLSLSPGERATLSCTSSQSVYHANWLSWFQQKPGQPPKLLIYWASTLAYGVPSRFSGSGSGTDFTLTISSLQPEDAATYYCAGGYGGGRYAFGQGTKVEIKRTVAAPSVFIFPPSDEQLKSGTASVVCLLNNFYPREAKVQWKVDNALQSGNSQESVTEQDSKDSTYSLSSTLTLSKADYEKHKVYACEVTHQGLSSPVTKSFNRGEC
notes: Fc variant of MS1032LO06-SG1; EU numbering
In assay [4], B6 gave a Kd of 4.2 µM.

B7: M103205H795-MY278 (heavy chain) with M103202L889-SK1 (light chain) (antibody, human IgG1, kappa, name in EU numbering)
heavy: QVTLKESGPVLVKPTETLTLTCTVSGIDLSHDDISWVRQAPGKGLEWVGIISYAGSTYYASWAKGRLTISKDTSKNQVVLTMTNMDPVDTATYYCARGVPAYSHGGDLWGQGTLVTVSSASTKGPSVFPLAPSSKSTSGGTAALGCLVKDYFPEPVTVSWNSGALTSGVHTFPAVLQSSGLYSLSSVVTVPSSSLGTQTYICNVNHKPSNTKVDKKVEPKSCDKTHTCPPCPAPELLMGPSVFLFPPKPKDTLMISRTPEVTCVVVDVSDEDPEVKFNWYVDGVEVHNAKTKPREELYNSTYRVVSVLTVLHQDWLNGKEYKCKVSNKALPKPIEKTISKAKGQPREPQVYTLPPSREEMTKNQVSLTCLVKGFYPSDIAVEWESNGQPENNYKTTPPVLDSDGSFFLYSKLTVDKSRWQQGNVFSCSVMHEALHNHYTQKSLSLSP
light: DIVMTQSPATLSLSPGERATLSCTSSQSVYHANWLSWFQQKPGQPPKLLIYWASTLAYGVPSRFSGSGSGTDFTLTISSLQPEDAATYYCAGGYGGGRYAFGQGTKVEIKRTVAAPSVFIFPPSDEQLKSGTASVVCLLNNFYPREAKVQWKVDNALQSGNSQESVTEQDSKDSTYSLSSTLTLSKADYEKHKVYACEVTHQGLSSPVTKSFNRGEC
notes: Substitutions introduced into M103205H795-SG1; positions in EU numbering
Take B7: in assay [5], the “KD fold (SG1 = 1)” value is 0.49 fold.

B8: M103205H795-MY279 (heavy chain) with M103202L889-SK1 (light chain) (antibody, human IgG1, kappa, name in EU numbering)
heavy: QVTLKESGPVLVKPTETLTLTCTVSGIDLSHDDISWVRQAPGKGLEWVGIISYAGSTYYASWAKGRLTISKDTSKNQVVLTMTNMDPVDTATYYCARGVPAYSHGGDLWGQGTLVTVSSASTKGPSVFPLAPSSKSTSGGTAALGCLVKDYFPEPVTVSWNSGALTSGVHTFPAVLQSSGLYSLSSVVTVPSSSLGTQTYICNVNHKPSNTKVDKKVEPKSCDKTHTCPPCPAPELLHGPSVFLFPPKPKDTLMISRTPEVTCVVVDVSDEDPEVKFNWYVDGVEVHNAKTKPREELYNSTYRVVSVLTVLHQDWLNGKEYKCKVSNKALPKPIEKTISKAKGQPREPQVYTLPPSREEMTKNQVSLTCLVKGFYPSDIAVEWESNGQPENNYKTTPPVLDSDGSFFLYSKLTVDKSRWQQGNVFSCSVMHEALHNHYTQKSLSLSP
light: DIVMTQSPATLSLSPGERATLSCTSSQSVYHANWLSWFQQKPGQPPKLLIYWASTLAYGVPSRFSGSGSGTDFTLTISSLQPEDAATYYCAGGYGGGRYAFGQGTKVEIKRTVAAPSVFIFPPSDEQLKSGTASVVCLLNNFYPREAKVQWKVDNALQSGNSQESVTEQDSKDSTYSLSSTLTLSKADYEKHKVYACEVTHQGLSSPVTKSFNRGEC
notes: as for B7
For the molecule B8, the “KD fold (SG1 = 1)” value in assay [5] turned out to be 0.15 fold.

B9: M103205H795-MY142 (heavy chain) with M103202L889-SK1 (light chain) (antibody, human IgG1, kappa, name in EU numbering)
heavy: QVTLKESGPVLVKPTETLTLTCTVSGIDLSHDDISWVRQAPGKGLEWVGIISYAGSTYYASWAKGRLTISKDTSKNQVVLTMTNMDPVDTATYYCARGVPAYSHGGDLWGQGTLVTVSSASTKGPSVFPLAPSSKSTSGGTAALGCLVKDYFPEPVTVSWNSGALTSGVHTFPAVLQSSGLYSLSSVVTVPSSSLGTQTYICNVNHKPSNTKVDKKVEPKSCDKTHTCPPCPAPELLEGPSVFLFPPKPKDTLMISRTPEVTCVVVDVSEEDPEVKFNWYVDGVEVHNAKTKPREEQYNSTYRVVSVLTVLHQDWLNGKEYKCKVSNKALPAPIEKTISKAKGQPREPQVYTLPPSREEMTKNQVSLTCLVKGFYPSDIAVEWESNGQPENNYKTTPMVLDSDGSFFLYSKLTVDKSRWQQGNVFSCSVMHEALHNHYTQKSLSLSP
light: DIVMTQSPATLSLSPGERATLSCTSSQSVYHANWLSWFQQKPGQPPKLLIYWASTLAYGVPSRFSGSGSGTDFTLTISSLQPEDAATYYCAGGYGGGRYAFGQGTKVEIKRTVAAPSVFIFPPSDEQLKSGTASVVCLLNNFYPREAKVQWKVDNALQSGNSQESVTEQDSKDSTYSLSSTLTLSKADYEKHKVYACEVTHQGLSSPVTKSFNRGEC
notes: as for B7
Take B9: in assay [5], the “KD fold (SG1 = 1)” value is 2.57 fold.
